{"source": "paper PMC3648639", "target": "untagged RNF8 FHA domain (UniProt O76064)", "sequence (O76064 38-92)": "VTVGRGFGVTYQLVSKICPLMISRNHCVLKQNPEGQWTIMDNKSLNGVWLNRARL", "assay": "ITC", "data": [{"substance": "ICP0 pT67 peptide", "values": [{"measurement": "Kd", "result": 833, "unit": "nM"}]}]}
